Results taken from patent publication US20130196320A1, “METHOD FOR IMPROVING CLEAVAGE OF DNA BY ENDONUCLEASE SENSITIVE TO METHYLATION” (CELLECTIS, priority 2010, published 2013).

Tests used:
[1] = tested on: XPC4 target locus in 293H cells; test: Meganuclease-induced mutagenesis at XPC4 target locus by deep sequencing, siRNA targeting DNMT1; format: cell-based, human; conditions: for mutagenesis, PCR fragments carrying a mutation: Empty vector
Method: (§1) The human 293H cells (ATCC) were plated at a density of 1.2×10^6 cells per 10 cm dish in complete medium (DMEM supplemented with 2 mM L-glutamine, penicillin (100 IU/ml), streptomycin (100 μg/ml), amphotericin B (Fongizone: 0.25 μg/ml, Invitrogen-Life Science) and 10% FBS). The next day, cells were transfected with 5 μg of empty vector pCLS003 (SEQ ID NO: 65) and 1 nM or 5 nM of si_DNMT1 composed of mixture of two siRNA DNMT1—1 ([…], SEQ ID NO: 66) and DNMT1—2 ([…], SEQ ID NO: 67) or with si_AS, a siRNA control with no known human target, using Lipofectamine 2000 as transfection reagent (Invitrogen) according to the manufacturer's protocol. The day after, cells were re-platted at the density of 1.2×10^6 cells per 10 cm. 24 hours after, cells were transfected again with 1 nM or 5 nM of siDNMT1 or si_AS in presence of 3 μg of meganuclease expressing vector (pCLS2510; SEQ ID NO: 68) and 2 μg of empty vector or 5 μg of empty vector (SEQ ID NO: 65), with Lipofectamine 2000 transfection reagent (Invitrogen) according to the manufacturer's protocol.
After genomic DNA extraction, the XPC4 target locus was amplified with specific primers flanked by specific adaptator needed for HTS sequencing on the 454 sequencing system (454 Life Sciences)
5,000 to 10,000 sequences per sample were analyzed.

[2] = tested on: XPC4 target CpG motives in 293H cells; test: DNA methylation of XPC4 target by bisulfite treatment and sequencing, siRNA targeting DNMT1; format: cell-based, human; conditions: for amount of unmethylated C, % of total: one of the two CpG of XPC4 target; for amount of unmethylated C: the other CpG of XPC4 target
Description: FIG. 15: Chromatogram. In order to determine the methylation status of the two CpG motives present in the XPC4 target sequence, genomic DNA was extracted, and treated with bisulfite. Bisulfite treatment is based on a chemical reaction of sodium bisulfite with DNA that converts unmethylated cytosines into uracil whereas methylated cytosines remain unchanged. DNA was then amplified by PCR and sequenced. […] For one of the two CpG ([…]; SEQ ID NO: 24) the amount of unmethylated C was estimated to 20 and 30% of total after 1 nM and 5 nM of si_DNMT1, respectively. For the other CpG ([…]; SEQ ID NO: 24) the amount of unmethylated C was estimated to 25 and 50% after 1 nM and 5 nM of si_DNMT1, respectively.
as §1
To assess the level DNA methylation, DNA sequencing was performed after a bisulfite treatment according to the instructions of the manufacturer (EZ DNA methylation-Gold Kit, Zymo Research). After genomic DNA extraction, the XPC4 target locus was amplified by PCR with specific primers

[3] = tested on: CAPNS1 target in human CAPNS1 gene, 293H cells; test: Meganuclease-induced mutagenesis assay at CAPNS1 recognition site; format: cell-based; conditions: CAPNS1 meganuclease
Method: (§2) The human 293H cells (ATCC) were plated at a density of 1.2×10^6 cells per 10 cm dish in complete medium (DMEM supplemented with 2 mM L-glutamine, penicillin (100 IU/ml), streptomycin (100 μg/ml), amphotericin B (Fongizone: 0.25 μg/ml, Invitrogen-Life Science) and 10% FBS). The cells were pre-treated with 5-aza-deoxycytidine at 0.2 μM or 1 μM, 48 hours before transfection and the treatment was maintained 48 hours post-transfection. The medium was changed every day. The cells were transfected with 3 μg of DNA plasmids encoding meganuclease for RAG or 2.5 μg of each monomer CAPNS1 using Lipofectamine 2000 transfection reagent (Invitrogen) according to the manufacturer's protocol.
(§3) The efficiency of the meganuclease to promote mutagenesis at its endogenous recognition site was evaluated by sequencing the DNA surrounding the meganuclease cleavage site. Two days post-transfection, genomic DNA was extracted. 200 ng of genomic DNA were used to amplify (PCR amplification) the endogenous locus surrounding the meganuclease cleavage site. PCR amplification is performed to obtain a fragment flanked by specific adaptor sequences [adaptor A: 5′-[…]-NNNN-3′(SEQ ID NO: 46) and adaptor B, 5′-[…]-3′ (SEQ ID NO: 47)] provided by the company offering sequencing service (GATC Biotech AG, Germany) on the 454 sequencing system (454 Life Sciences). The primers sequences used for PCR amplification were:
(§4) RAG_R1: 5′-[…]-[…]-3′ (SEQ ID NO: 58) and CAPNS1_J3: 5′-[…]-NNNN-[…] (SEQ ID NO: 59) and CAPNS1_R3: 5′-[…]-[…]-3′ (SEQ ID NO: 60). Sequences specific to the locus are underlined. The sequence NNNN in primer F1 is a Barcode sequence (Tag) needed to link the sequence with a PCR product. The percentage of PCR fragments carrying insertion or deletion at the meganuclease cleavage site is related to the mutagenesis induced by the meganuclease through NHEJ pathway in a cell population, and therefore correlates with the meganuclease activity at its endogenous recognition site. 5000 to 10000 sequences were analyzed per conditions.

C1221 DNA target = test: In vitro cleavage assay with C1221 duplex, increasing meganuclease concentration; format: biochemical
Method: FIG. 2: In vitro cleavage of unmethylated or methylated C1221 by I-CreI. A constant amount of C1221 (50 nM) was incubated with increasing concentrations of I-CreI (0 to 2 μM) in reaction buffer (10 mM Tris-HCl, 150 mM NaCl, 10 mM MgCl2, pH8) for an hour at 37° C. The reaction was stopped and the remaining uncleaved C1221 was quantify and plotted as function of I-CreI concentration.
FIG. 3: In vitro cleavage of unmethylated or methylated C1221 by I-CreI D75N. 50 nM C1221 containing either 0, 1, 2 or 3 methylated CG was incubated with increasing concentrations of I-CreI D75N (0 to 2 μM) in reaction buffer (10 mM Tris-HCl, 150 mM NaCl, 10 mM MgCl2, pH8) for an hour at 37° C. The reaction was stopped and cleaved and uncleaved C1221 (top and bottom panel respectively) were quantify and plotted as function of I-CreI D75N concentration.
To investigate the influence of C1221 methylation on the nuclease activity of I-CreI, an in vitro cleavage assay with either unmethylated or fully methylated C1221 duplex (SEQ ID NOs: 4-5 and 12-13 respectively) was performed. A constant amount of C1221 duplex (50 nM) was incubated with increasing concentration of I-CreI (0 to 2 μM) in a total volume of 25 μL of reaction buffer (10 mM Tris-HCl, 150 mM NaCl, 10 mM MgCl2, pH8). Cleavage reaction was allowed to proceed 1 hour at 37° C. and then stopped by addition of 5 μL of 6× stop buffer (45% glycerol, 95 mM EDTA, 1.5% (w/v) SDS, 1.5 mg/mL proteinase K and 0.048% (w/v) bromophenol blue) followed by an hour incubation at 37° C. Cleaved and uncleaved DNA products were separated by PAGE using a TGX Any kD precast gel (Bio-Rad), stained with SYBR Green and then quantified using Quantity One software (Bio-Rad).
To investigate the influence of C1221 methylation on the nuclease activity of I-CreI D75N, in vitro cleavage assay with C1221 duplex containing either 0, 1, 2 or 3 methylated CG (SEQ ID NOs: 4-5, 6-7, 8-9, 10-11 respectively) was performed, according to the procedure described for I-CreI wild type.

[4] = tested on: RAG target in human RAG1 gene, 293H cells; test: Meganuclease-induced mutagenesis assay at RAG recognition site; format: cell-based; conditions: RAG meganuclease
Method: as §2, §3
RAG_F1: 5′-[…]-NNNN-[…] (SEQ ID NO: 57) and
as §4

si_DNMT1: mixture of two siRNA DNMT1—1 (SEQ ID NO: 66) and DNMT1—2 (SEQ ID NO: 67) targeting DNMT1 gene (chain 1 ACGGTGCTCATGCTTACAACC; chain 2 CCCAATGAGACTGACATCAAA; mixture of two siRNAs, further chemistry not given here)
mutagenesis, PCR fragments carrying a mutation ([1]; Si_DNMT1 1 nM): 0.022% | mutagenesis, PCR fragments carrying a mutation ([1]; Si_DNMT1 5 nM): 0.055% | mutagenesis ([1]; empty vector, 1 or 5 nM of si_DNMT1): low or absent | amount of unmethylated C, % of total ([2]; 1 nM): 20% | amount of unmethylated C, % of total ([2]; 5 nM): 30% | amount of unmethylated C ([2]; 1 nM): 25% | amount of unmethylated C ([2]; 5 nM): 50%

B1: CAPNS1: engineered heterodimer meganuclease (SEQ ID NO: 62+SEQ ID NO: 63) cleaving the 5′ UTR of the human CAPNS1 gene (protein)
chain 1: MANTKYNKEFLLYLAGFVDSDGSIIAQIKPRQSYKFKHQLRLTFYVTQKTQRRWFLDKLVDEIGVGYVEDSGSVSRYVLSEIKPLHNFLTQLQPFLKLKQKQANLVLKIIEQLPSAKESPDKFLEVCTWVDQVAALNDSKTRKTTSETVRAVLDSLSEKKKSSPAAD
chain 2: MANTKYNKEFLLYLAGFVDGDGSIVAQIKPNQRAKFKHQLSLTFQVTQKTQRRWLLDKLVDEIGVGYVQDSGSVSNYRLSEIKPLHNFLTQLQPFLKLKQKQANLVLKIIEQLPSAKESPDKFLEVCTWADQIAALNDSKTRKTTSETVRAVLDSLSEKKKPSPAAD
mutagenesis, PCR fragments carrying a mutation ([3]; 0 μM 5-aza-2′-deoxycytidine): 6.10% ± 0.43 | mutagenesis, PCR fragments carrying a mutation ([3]; 0 μM 5-aza-2′-deoxycytidine, listed as CAPNS1 meganuclease): 6.1%±0.43 | mutagenesis, PCR fragments carrying a mutation ([3]; 0.2 μM 5-aza-2′-deoxycytidine): 6.55% ± 0.77 | mutagenesis, PCR fragments carrying a mutation ([3]; 0.2 μM 5-aza-2′-deoxycytidine, listed as CAPNS1 meganuclease): 6.55%±0.77 | mutagenesis, PCR fragments carrying a mutation ([3]; 1 μM 5-aza-2′-deoxycytidine): 4.34% ± 0.95 | mutagenesis, PCR fragments carrying a mutation ([3]; 1 μM 5-aza-2′-deoxycytidine, listed as CAPNS1 meganuclease): 4.34%±0.95

B2: I-CreI D75N: I-CreI D75N meganuclease variant, SEQ ID NO: 22 (protein)
chain: MANTKYNKEFLLYLAGFVDGDGSIIAQIKPNQSYKFKHQLSLAFQVTQKTQRRWFLDKLVDEIGVGYVRDRGSVSDYILSEIKPLHNFLTQLQPFLKLKQKQANLVLKIIWRLPSAKESPDKFLEVCTWVDQIAALNDSKTRKTTSETVRAVLDSLSEKKKSSPAAD
increase of C50 (C1221 DNA target; C1221 with one methyl group on both strand vs unmethylated): about 3 folds | increase of C50 (C1221 DNA target; C1221 with three methyl groups vs unmethylated): more than 10 folds | increase of C50 (C1221 DNA target; C1221 with two methyl groups vs unmethylated): more than 10 folds | meganuclease concentration at which C1221 cleaved product leveled up (C1221 DNA target; unmethylated C1221): about 500 nM | EC50 (C1221 DNA target; unmethylated C1221, 1 hour at 37° C., read-out: C50 (concentration of meganuclease needed to cleave 50% of C1221)): 100 to 150 nM

B3: RAG: engineered single chain meganuclease (SEQ ID NO: 61) designed to cleave a sequence in the human RAG1 gene (protein)
chain: MANTKYNEEFLLYLAGFVDGDGSIIAQINPNQSSKFKHRLRLTFYVTQKTQRRWFLDKLVDEIGVGYVRDSGSVSQYVLSEIKPLHNFLTQLQPFLELKQKQANLVLKIIEQLPSAKESPDKFLEVCTWVDQIAALNDSKTRKTTSETVRAVLDSLSGKKKSSPAAGGSDKYNQALSKYNQALSKYNQALSGGGGSNKKFLLYLAGFVDSDGSIIAQIKPRQSNKFKHQLSLTFAVTQKTQRRWFLDKLVDRIGVGYVYDSGSVSDYRLSEIKPLHNFLTQLQPFLKLKQKQANLVLKIIEQLPSAKESPDKFLEVCTWVDQIAALNDSKTRKTTSETVRAVLDSLSEKKKSSP
mutagenesis, PCR fragments carrying a mutation ([4]; 0 μM 5-aza-2′-deoxycytidine): 0.76% ± 0.02 | mutagenesis, PCR fragments carrying a mutation ([4]; 0 μM 5-aza-2′-deoxycytidine, listed as RAG meganuclease): 0.75%±0.02 | mutagenesis, PCR fragments carrying a mutation ([4]; 0.2 μM 5-aza-2′-deoxycytidine): 0.71% ± 0.17 | mutagenesis, PCR fragments carrying a mutation ([4]; 0.2 μM 5-aza-2′-deoxycytidine, listed as RAG meganuclease): 0.71%±0.17 | mutagenesis, PCR fragments carrying a mutation ([4]; 1 μM 5-aza-2′-deoxycytidine): 0.59% ± 0.3 | mutagenesis, PCR fragments carrying a mutation ([4]; 1 μM 5-aza-2′-deoxycytidine, listed as RAG meganuclease): 0.59%±0.31
